Values quoted from earlier work, collected in US10227617B2, “Sequestration of carbon dioxide with hydrogen to useful products” (UNIVERSITY OF GEORGIA RESEARCH FOUNDATION, INC., priority 2012, dated 2019).

Conditions: reported data, FIG. 4; cited from earlier work

B1: Msed_1456: M. sedula 3-hydroxypropionate:CoA ligase, SEQ ID NO:6 (protein, listed as Metallosphaera sedula)
chain: MFMRYIMVEEQTLKTGSQELEEKADYNMRYYAHLMKLSKEKPAEFWGSLAQDLLDWYEPWKETMRQEDPMTRWFIGGKINASYNAVDRHLNGPRKFKAAVIWESELGERKIVTYQDMFYEVNRWANALRSLGVGKGDRVTIYMPLTPEGIAAMLASARIGAIHSVIFAGFGSQAIADRVEDAKAKVVITADAYPRRGKVVELKKTVDEALNSLGERSPVQHVLVYRRMKTDVNMKEGRDVFFDEVGKYRYVEPERMDSNDPLFILYTSGTTGKPKGIMHSTGGYLTGTAVMLLWSYGLSQENDVLFNTSDIGWIVGHSYITYSPLIMGRTVVIYESAPDYPYPDKWAEIIERYRATTFGTSATALRYFMKYGDEYVKNHDLSSIRIIVTNGEVLNYSPWKWGLEVLGGGKVFMSHQWWQTETGAPNLGYLPGIIYMPMKSGPASGFPLPGNFVEVLDENGNPSAPRVRGYLVMRPPFPPNMMMGMWNDNGERLKKTYFSKFGSLYYPGDFAMVDEDGYIWVLGRADETLKIAAHRIGAGEVESAITSHPSVAEAAVIGVPDSVKGEEVHAFVVLKQGYAPSSELAKDIQSHVRKVMGPIVSPQIHFVDKLPKTRSGKVMRRVIKAVMMGSSAGDLTTIEDEASMDEIKKAVEELKKELKTS
- activity on 3-hydroxybutyrate: > 1%
